Experimental data published in PMC10784468 (Nature Communications, 2024).
Read-outs that look alike come from different tables or passages of the source. Positions of bridges follow the written chain, without caps; N, C: chain ends. Residues, ends and D or L forms follow the SMILES beside them. *: point of attachment. X1 = O=C(O)c1ccc(-c2c3nc(c(-c4ccc(C(=O)O)cc4)c4ccc([nH]4)c(-c4ccc(C(=O)*)cc4)c4nc(c(-c5ccc(C(=O)O)cc5)c5ccc2[nH]5)C=C4)C=C3)cc1; X2 = O=C(O)C/C(=C/C(=O)*)C(=O)O

Assays:
[1] = Morphology and size by TEM; type: physicochemical; settings: PBS 0.01 M, pH 6.5, 1 h, 40 μM
Protocol: Nano-ZS 3600 (Malvern Instruments, UK) was used to measure the size distribution of the peptide-porphyrin conjugate solutions. The conjugate solutions (40 μM) were incubated at pH 7.4 or pH 6.5 before measurements. An average value was determined by three repeated measurements at 25 °C for each sample. Besides, transmission electron microscopy (TEM, Tecnai G2 20 S-TWIN) was conducted to observe the morphology and diameters of conjugates in aqueous solution, The conjugates (50 μL, 40 μM) were kept in PB solution at pH 7.4 or pH 6.5, which were dropped on copper meshes. After 5 min, unnecessary liquid was removed and the uranyl acetate solution (10 μL) was dropped on this copper mesh to stain the samples for 10 min. Finally, the copper meshes were washed with deionized water, and dried at room temperature for observation.

[2] = Protocol: The main organs (heart, liver, spleen, lung, kidney and intestine) of healthly BALB/c nude mice (~8 weeks old, 18 g) were collected under euthanasia after treatment with PBS and Gi-F-CAA (8, 12 and 16 mg/kg in 100 μL PBS) for 1 day. Afterwards, the histology evaluation by Hematoxylin and Eosin (H&E) Staining was carried out by Servicebio Technology Co., Ltd. (Wuhan, China). Meanwhile, the whole blood and serum of healthly BALB/c nude mice (~8 weeks old, 18 g) were collected after treatment with PBS and Gi-F-CAA (8, 12 and 16 mg/kg in 100 μL PBS) for 1 days. The blood biochemistry analysis was performed with Hitachi Automatic Biochemical Analyzer 7100. The blood routine analysis was carried out by Vital River Laboratory Animal Technology Co., Ltd. (Beijing, China).
786-O xenograft tumors = assay: In vivo antitumor evaluation in large tumor model (786-O); design: species or system BALB/c nude mice; settings: six i.v. injections at 2-days intervals, Gi-F-CAA 8 mg/kg, Bevacizumab 5 mg/kg
EJ cells = assay: Cellular imaging (uptake) by CLSM; type: cell-based; settings: Cy7-labeled, 40 μM, 2 h
Protocol: Initially, EJ cells (5 × 10^5) were cultured in confocal dish with a CO2 incubator overnight at 37 °C. Subsequently, the EJ cells were incubated with Cy labeled Gi-F-CAA (40 μM, pH = 7.4) and Cy labeled Gi-F-CAA (40 μM, pH = 6.5) for 2 h followed by washing with PBS for three times.

[3] = healthy mice, i.v. 8, 12 and 16 mg/kg, 1 day post-injection

With `CC(C)C[C@H](NC(=O)c1ccc(-c2c3nc(c(-c4ccc(C(=O)O)cc4)c4ccc([nH]4)c(-c4ccc(C(=O)O)cc4)c4nc(c(-c5ccc(C(=O)O)cc5)c5ccc2[nH]5)C=C4)C=C3)cc1)C(=O)N[C@@H](CCCCNC(=O)/C=C(/CC(=O)O)C(=O)O)C(=O)N[C@@H](CC(C)C)C(=O)N[C@@H](CCCCN)C(=O)N[C@@H](CC(C)C)C(=O)N[C@@H](CCCCNC(=O)/C=C(/CC(=O)O)C(=O)O)C(=O)NCC(=O)N[C@@H](C)C(=O)N[C@H]1CSSC[C@@H](C(=O)N2CCC[C@H]2C(=O)N[C@H](C(=O)O)C(C)C)NC(=O)[C@@H]2CCCN2C(=O)[C@H](Cc2ccc(O)cc2)NC(=O)[C@H](CC(C)C)NC(=O)[C@@H]2CCCN2C(=O)[C@H](CC(C)C)NC(=O)[C@H](Cc2c[nH]c3ccccc23)NC(=O)[C@H](CC(N)=O)NC1=O` [Gi-F-CAA] (X1-LK(X2)LKLK(X2)GACNWLPLYPCPV-OH; disulfide 9-17; C-terminus assumed) the “particle size (TEM)” value [1] was 57 ± 9 nm, the ALP ([2]; 8 mg/kg, mice 1) was 152 U/L and the ALT ([2]; 8 mg/kg, mice 1) was 62 U/L. The AST ([2]; 8 mg/kg, mice 1) was 183 U/L, the BUN ([2]; 8 mg/kg, mice 1) was 13.2 mmol/L and the CREA ([2]; 8 mg/kg, mice 1) was 30.8 µmol/L. The HGB ([2]; 8 mg/kg, mice 1) was 15.7 g/dL, the NEUT ([2]; 8 mg/kg, mice 1) was 0.4 109/L and the PLT ([2]; 8 mg/kg, mice 1) was 985 109/L. The RBC ([2]; 8 mg/kg, mice 1) was 10.6 1012/L, the WBC ([2]; 8 mg/kg, mice 1) was 1.8 109/L and the ALP ([2]; 8 mg/kg, mice 2) was 159 U/L. For the same compound, the ALT ([2]; 8 mg/kg, mice 2) was 60 U/L, the AST ([2]; 8 mg/kg, mice 2) was 184 U/L and the BUN ([2]; 8 mg/kg, mice 2) was 14.42 mmol/L. For the same compound, the CREA ([2]; 8 mg/kg, mice 2) was 28.8 µmol/L, the HGB ([2]; 8 mg/kg, mice 2) was 15.4 g/dL and the NEUT ([2]; 8 mg/kg, mice 2) was 0.3 109/L. For the same compound, the PLT ([2]; 8 mg/kg, mice 2) was 1198 109/L, the RBC ([2]; 8 mg/kg, mice 2) was 10.1 1012/L and the WBC ([2]; 8 mg/kg, mice 2) was 1.5 109/L. For the same compound, the ALP ([2]; 8 mg/kg, mice 3) was 145 U/L, the ALT ([2]; 8 mg/kg, mice 3) was 56 U/L and the AST ([2]; 8 mg/kg, mice 3) was 193 U/L. The BUN ([2]; 8 mg/kg, mice 3) was 13.94 mmol/L, the CREA ([2]; 8 mg/kg, mice 3) was 31.6 µmol/L and the HGB ([2]; 8 mg/kg, mice 3) was 15.9 g/dL. The NEUT ([2]; 8 mg/kg, mice 3) was 0.3 109/L, the PLT ([2]; 8 mg/kg, mice 3) was 1073 109/L and the RBC ([2]; 8 mg/kg, mice 3) was 9 1012/L. The WBC ([2]; 8 mg/kg, mice 3) was 1.7 109/L, the ALP ([2]; 8 mg/kg, mice 4) was 159 U/L and the ALT ([2]; 8 mg/kg, mice 4) was 63 U/L. For the same compound, the AST ([2]; 8 mg/kg, mice 4) was 180 U/L, the BUN ([2]; 8 mg/kg, mice 4) was 13.15 mmol/L and the CREA ([2]; 8 mg/kg, mice 4) was 31 µmol/L. For the same compound, the HGB ([2]; 8 mg/kg, mice 4) was 15.3 g/dL, the NEUT ([2]; 8 mg/kg, mice 4) was 0.4 109/L and the PLT ([2]; 8 mg/kg, mice 4) was 1117 109/L. The RBC ([2]; 8 mg/kg, mice 4) was 10 1012/L, the WBC ([2]; 8 mg/kg, mice 4) was 2 109/L and the ALP ([2]; 12 mg/kg, mice 1) was 150 U/L. The ALT ([2]; 12 mg/kg, mice 1) was 61 U/L, the AST ([2]; 12 mg/kg, mice 1) was 192 U/L and the BUN ([2]; 12 mg/kg, mice 1) was 13.27 mmol/L. For the same compound, the CREA ([2]; 12 mg/kg, mice 1) was 30 µmol/L, the HGB ([2]; 12 mg/kg, mice 1) was 15.2 g/dL and the NEUT ([2]; 12 mg/kg, mice 1) was 0.4 109/L. For the same compound, the PLT ([2]; 12 mg/kg, mice 1) was 991 109/L, the RBC ([2]; 12 mg/kg, mice 1) was 9 1012/L and the WBC ([2]; 12 mg/kg, mice 1) was 1.9 109/L. It also gave an ALP ([2]; 12 mg/kg, mice 2) of 145 U/L, an ALT ([2]; 12 mg/kg, mice 2) of 63 U/L and an AST ([2]; 12 mg/kg, mice 2) of 191 U/L. It also gave a BUN ([2]; 12 mg/kg, mice 2) of 13.11 mmol/L, a CREA ([2]; 12 mg/kg, mice 2) of 28.5 µmol/L and an HGB ([2]; 12 mg/kg, mice 2) of 15.4 g/dL. The NEUT ([2]; 12 mg/kg, mice 2) was 0.3 109/L, the PLT ([2]; 12 mg/kg, mice 2) was 1110 109/L and the RBC ([2]; 12 mg/kg, mice 2) was 9.3 1012/L. For the same compound, the WBC ([2]; 12 mg/kg, mice 2) was 1.6 109/L, the ALP ([2]; 12 mg/kg, mice 3) was 153 U/L and the ALT ([2]; 12 mg/kg, mice 3) was 60 U/L. It also gave an AST ([2]; 12 mg/kg, mice 3) of 190 U/L, a BUN ([2]; 12 mg/kg, mice 3) of 12.9 mmol/L and a CREA ([2]; 12 mg/kg, mice 3) of 30.6 µmol/L. For the same compound, the HGB ([2]; 12 mg/kg, mice 3) was 15.6 g/dL, the NEUT ([2]; 12 mg/kg, mice 3) was 0.3 109/L and the PLT ([2]; 12 mg/kg, mice 3) was 1144 109/L. For the same compound, the RBC ([2]; 12 mg/kg, mice 3) was 10 1012/L, the WBC ([2]; 12 mg/kg, mice 3) was 1.9 109/L and the ALP ([2]; 12 mg/kg, mice 4) was 146 U/L. For the same compound, the ALT ([2]; 12 mg/kg, mice 4) was 60 U/L, the AST ([2]; 12 mg/kg, mice 4) was 190 U/L and the BUN ([2]; 12 mg/kg, mice 4) was 13.29 mmol/L. The CREA ([2]; 12 mg/kg, mice 4) was 29.9 µmol/L, the HGB ([2]; 12 mg/kg, mice 4) was 16.4 g/dL and the NEUT ([2]; 12 mg/kg, mice 4) was 0.3 109/L. For the same compound, the PLT ([2]; 12 mg/kg, mice 4) was 1087 109/L, the RBC ([2]; 12 mg/kg, mice 4) was 10.1 1012/L and the WBC ([2]; 12 mg/kg, mice 4) was 2.1 109/L. For the same compound, the ALP ([2]; 16 mg/kg, mice 1) was 150 U/L, the ALT ([2]; 16 mg/kg, mice 1) was 57 U/L and the AST ([2]; 16 mg/kg, mice 1) was 182 U/L. It also gave a BUN ([2]; 16 mg/kg, mice 1) of 14.18 mmol/L, a CREA ([2]; 16 mg/kg, mice 1) of 31.7 µmol/L and an HGB ([2]; 16 mg/kg, mice 1) of 15.7 g/dL. For the same compound, the NEUT ([2]; 16 mg/kg, mice 1) was 0.4 109/L, the PLT ([2]; 16 mg/kg, mice 1) was 1194 109/L and the RBC ([2]; 16 mg/kg, mice 1) was 9.6 1012/L. The WBC ([2]; 16 mg/kg, mice 1) was 2 109/L, the ALP ([2]; 16 mg/kg, mice 2) was 145 U/L and the ALT ([2]; 16 mg/kg, mice 2) was 56 U/L. For the same compound, the AST ([2]; 16 mg/kg, mice 2) was 188 U/L, the BUN ([2]; 16 mg/kg, mice 2) was 13.21 mmol/L and the CREA ([2]; 16 mg/kg, mice 2) was 29.4 µmol/L. The HGB ([2]; 16 mg/kg, mice 2) was 15.3 g/dL, the NEUT ([2]; 16 mg/kg, mice 2) was 0.3 109/L and the PLT ([2]; 16 mg/kg, mice 2) was 984 109/L. For the same compound, the RBC ([2]; 16 mg/kg, mice 2) was 10.5 1012/L, the WBC ([2]; 16 mg/kg, mice 2) was 1.5 109/L and the ALP ([2]; 16 mg/kg, mice 3) was 148 U/L. The ALT ([2]; 16 mg/kg, mice 3) was 64 U/L, the AST ([2]; 16 mg/kg, mice 3) was 180 U/L and the BUN ([2]; 16 mg/kg, mice 3) was 12.87 mmol/L. For the same compound, the CREA ([2]; 16 mg/kg, mice 3) was 28.9 µmol/L, the HGB ([2]; 16 mg/kg, mice 3) was 15.1 g/dL and the NEUT ([2]; 16 mg/kg, mice 3) was 0.3 109/L. For the same compound, the PLT ([2]; 16 mg/kg, mice 3) was 1087 109/L, the RBC ([2]; 16 mg/kg, mice 3) was 10.6 1012/L and the WBC ([2]; 16 mg/kg, mice 3) was 1.9 109/L. For the same compound, the ALP ([2]; 16 mg/kg, mice 4) was 146 U/L, the ALT ([2]; 16 mg/kg, mice 4) was 59 U/L and the AST ([2]; 16 mg/kg, mice 4) was 193 U/L. For the same compound, the BUN ([2]; 16 mg/kg, mice 4) was 12.98 mmol/L, the CREA ([2]; 16 mg/kg, mice 4) was 32.5 µmol/L and the HGB ([2]; 16 mg/kg, mice 4) was 15 g/dL. For the same compound, the NEUT ([2]; 16 mg/kg, mice 4) was 0.4 109/L, the PLT ([2]; 16 mg/kg, mice 4) was 1072 109/L and the RBC ([2]; 16 mg/kg, mice 4) was 9.8 1012/L. For the same compound, the WBC ([2]; 16 mg/kg, mice 4) was 1.9 109/L, the “blood routine examination (WBC, RBC, PLT, LYMPH, NEUT)” value ([2]; healthy mice, i.v. 8, 12 and 16 mg/kg, 1 day) was “comparable with that of PBS group” and the “hepatic and renal function markers (ALT, AST, ALP, BUN, CRE)” value [2, 3] was “normal ranges of values”. For the same compound, the “histopathology (H&E) of major organs” value [2, 3] was “no remarkable histopathological damages”, the “tumor volume course in large tumors (~500 mm^3)” value (786-O xenograft tumors) was “declining tendency for 10 days and maintained a long-termed tumor growth inhibition” and the “cellular uptake (CLSM) at pH 6.5” value (EJ cells; pH 6.5) was “obvious fluorescence signal was observed in the cytoplasm”. The “cellular uptake (CLSM) at pH 7.4” value (EJ cells; pH 7.4) was “barely detected”.
